Legend:
[1] = target: Myeloma human IgA1 (Abcam) (human, UniProt P01876-1 1-353); experiment: indirect ELISA, antigen coated 1 µg/mL, antibody 1 µg/mL; no-antigen well 0.048
Method: (§1) Myeloma human IgA1 (Abcam), Myeloma human IgA2 (Abcam), Myeloma human IgD (Abcam), Myeloma human IgE (Abcam), Myeloma human IgM (Abcam), Myeloma human IgG1 (EMD Millipore), Myeloma human IgG2 (EMD Millipore), Myeloma human IgG3 (Sigma-Aldrich Co. LLC), and Myeloma human IgG4 (EMD Millipore) were adjusted to 1 μg/mL with PBS(−). The adjusted samples were added to a 96-well plate (Thermo Fisher Scientific) by 100 μL, respectively. The plate was shaken by a shaker under the condition of 700 rpm and 25.0° C. for 1 hour. The solutions were discarded, the plate was cleaned with 300 μL of PBST 3 times, 100 μL of a blocking buffer solution was added to each well, and then the plate was stored at 4° C. one night or more. Similarly, after cleaning with PBST, the MaI4-08 and MaI4-09-produced antibodies were adjusted to 1 μg/mL with an antibody dilute buffer solution and then added to each well by 100 μL, and the plate was shaken under the same condition as mentioned above. Similarly, after cleaning with PBST, a HRP labeled anti-mouse IgG antibody (Abcam) diluted 4000-fold with an antibody dilute buffer solution was added to each well by 100 μL, and the plate was shaken under the same condition as mentioned above. Similarly, after cleaning with PBST, 100 μL of SureBlue (KPL) was added. 5 or 3 minutes later, 100 μL of 0.5 mol/L sulfuric acid (Wako Pure Chemical Corporation) was added to each of MaI4-08 and MaI4-09. Absorbance at a wavelength of 450 nm was measured with a microplate reader (BIO-RAD Laboratories, Inc.). As a result, a strong signal was given to Myeloma human IgG4 as compared to the other samples (Tables 2 and 3, and FIGS. 2 and 3).

[2] = target: Myeloma human IgA2 (Abcam) (human, UniProt P01877-1 1-340); experiment: as above
Method: as §1

[3] = target: Myeloma human IgD (Abcam) (human, UniProt P01880-1 1-384); experiment: as above
Method: as §1

[4] = target: Myeloma human IgE (Abcam) (human, UniProt P01854-1 1-428); experiment: as above
Method: as §1

[5] = target: Myeloma human IgM (Abcam) (human, UniProt P01871-1 1-453); experiment: as above
Method: as §1

[6] = target: T1, Myeloma human IgG2 (EMD Millipore) (human); experiment: as above
T1 construct: Bought myeloma protein
Method: as §1

[7] = target: T2, Myeloma human IgG3 (Sigma-Aldrich Co. LLC) (human); experiment: as above
T2 construct: Bought myeloma protein
Method: as §1

[8] = target: T3, GST-tagged peptide H2 (positions 1 to 274 of the human IgG4 heavy chain constant region) (human, UniProt P01861 1-274 = IgG part); experiment: Western blot: E. coli lysate with the GST-tagged peptide, SDS-PAGE, PVDF membrane, POD-labelled antibody diluted 1000-fold, ECL
T3 construct: E. coli lysate on Western blot; not shown: GST tag (glutathione S-transferase) linked to the N terminal, expressed from vector pGEX-6P-1
Method: (§2) Based on the designed amino acid sequences, base sequences suitable for expressing protein in E. coli were designed according to the protocol of GenScript Corporation, thereby preparing vector pGEX-6P-1 (GE Healthcare Bio-Sciences Corp.) to which the respective base sequences are inserted. The prepared expression plasmid was introduced to E. coli BL 21 strain, thereby obtaining a transformant. The transformant was cultured by an ordinary method and a protein expression was induced by IPTG. After the cells were collected by centrifugation, the cells were dissolved with an ordinary lysis solution, and subjected to ultrasonication. 6 μL of an SDS sample buffer solution was added to 6 μL of the obtained lysate. The respective prepared samples were subjected to a heat treatment at 95° C. for 5 minutes. 10 μL of the E. coli disrupted sample was added to each well of 5 to 20% electrophoresis gel (Atto Corportation) to which an SDS electrophoresis buffer solution was added. Similarly, a molecular weight standard (Bio-Rad Laboratories, Inc.) was added to each well and electrophoresed. After completing the electrophoresis, the electrophoresis gel was transcribed to a PVDF membrane (Millipore Corporation) with a transfer buffer solution. The PVDF membrane was immersed in a membrane blocking buffer solution, and then shaking was carried out at room temperature for 30 minutes. Amino groups of MaI4-08, MaI4-09, and MaI4-05-produced antibodies were subjected to a POD labeling treatment with a POD labeling kit (Dojindo Molecular Technologies, Inc.). The obtained labeled antibodies each were diluted 1000-fold by PBST. After the PVDF membrane was cleaned with PBST, the antibody solutions prepared each were added to the PVDF membrane, and then the reaction was performed at room temperature for 1 hour. After the PVDF membrane was cleaned by PBST, a signal was detected with ECL Prime Western Blotting Detection Reagents (GE Healthcare) with Image Quant Las4000.

[9] = target: T4, GST-tagged peptide H3 (positions 1 to 220 of the human IgG4 heavy chain constant region) (human, UniProt P01861 1-220 = IgG part); experiment: as above
T4 construct: E. coli lysate on Western blot; not shown: GST tag (glutathione S-transferase) linked to the N terminal, expressed from vector pGEX-6P-1
Method: as §2

[10] = target: T5, GST-tagged peptide H4 (positions 1 to 165 of the human IgG4 heavy chain constant region) (human, UniProt P01861 1-165 = IgG part); experiment: as above
T5 construct: E. coli lysate on Western blot; not shown: GST tag (glutathione S-transferase) linked to the N terminal, expressed from vector pGEX-6P-1
Method: as §2

[11] = target: T6, GST-tagged peptide H5 (positions 1 to 110 of the human IgG4 heavy chain constant region) (human, UniProt P01861 1-110 = IgG part); experiment: as above
T6 construct: E. coli lysate on Western blot; not shown: GST tag (glutathione S-transferase) linked to the N terminal, expressed from vector pGEX-6P-1
Method: as §2

[12] = target: T7, GST-tagged peptide H6 (positions 1 to 55 of the human IgG4 heavy chain constant region) (human, UniProt P01859 1-55 = IgG part); experiment: as above
T7 construct: E. coli lysate on Western blot; not shown: GST tag (glutathione S-transferase) linked to the N terminal, expressed from vector pGEX-6P-1
Method: as §2

[13] = target: T8, GST-tagged peptide H11 (positions 275 to 327 of the human IgG4 heavy chain constant region) (human, UniProt P01861 275-325 = IgG part); experiment: as above
T8 construct: E. coli lysate on Western blot; not shown: GST tag (glutathione S-transferase) linked to the N terminal, expressed from vector pGEX-6P-1
Method: as §2

[14] = target: T9, GST-tagged peptide H12 (positions 99 to 220 of the human IgG4 heavy chain constant region) (human, UniProt P01861 99-220 = IgG part); experiment: as above
T9 construct: E. coli lysate on Western blot; not shown: GST tag (glutathione S-transferase) linked to the N terminal, expressed from vector pGEX-6P-1
Method: as §2

T5 sequence (P01861 1-165): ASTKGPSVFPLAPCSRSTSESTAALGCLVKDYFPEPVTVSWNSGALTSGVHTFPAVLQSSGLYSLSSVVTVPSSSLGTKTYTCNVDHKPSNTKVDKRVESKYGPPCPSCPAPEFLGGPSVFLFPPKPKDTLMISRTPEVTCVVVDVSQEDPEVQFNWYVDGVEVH
Chain of Myeloma human IgE (Abcam) (P01854 other isoform, or with tags, fused parts or gaps): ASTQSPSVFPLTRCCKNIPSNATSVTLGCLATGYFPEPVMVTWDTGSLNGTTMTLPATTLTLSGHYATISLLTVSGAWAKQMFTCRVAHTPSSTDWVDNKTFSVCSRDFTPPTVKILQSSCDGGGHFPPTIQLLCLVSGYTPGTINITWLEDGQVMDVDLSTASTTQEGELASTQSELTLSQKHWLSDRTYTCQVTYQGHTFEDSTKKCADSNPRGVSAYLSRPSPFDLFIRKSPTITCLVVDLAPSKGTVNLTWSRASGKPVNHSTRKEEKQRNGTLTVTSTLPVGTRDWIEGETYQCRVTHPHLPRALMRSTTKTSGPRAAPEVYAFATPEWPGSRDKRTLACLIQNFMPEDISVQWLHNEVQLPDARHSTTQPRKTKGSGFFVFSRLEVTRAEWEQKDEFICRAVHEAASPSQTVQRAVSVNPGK
Chain of Myeloma human IgA2 (Abcam) (P01877 other isoform, or with tags, fused parts or gaps): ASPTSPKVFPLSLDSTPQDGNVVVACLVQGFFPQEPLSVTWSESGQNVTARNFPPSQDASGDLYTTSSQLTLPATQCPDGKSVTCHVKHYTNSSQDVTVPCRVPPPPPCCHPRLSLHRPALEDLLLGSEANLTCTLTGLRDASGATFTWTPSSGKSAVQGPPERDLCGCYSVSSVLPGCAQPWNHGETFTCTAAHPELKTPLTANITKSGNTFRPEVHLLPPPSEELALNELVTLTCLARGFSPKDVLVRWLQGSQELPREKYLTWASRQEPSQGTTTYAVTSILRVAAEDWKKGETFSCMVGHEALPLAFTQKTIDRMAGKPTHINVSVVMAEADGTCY
Chain of Myeloma human IgA1 (Abcam) (P01876 other isoform, or with tags, fused parts or gaps): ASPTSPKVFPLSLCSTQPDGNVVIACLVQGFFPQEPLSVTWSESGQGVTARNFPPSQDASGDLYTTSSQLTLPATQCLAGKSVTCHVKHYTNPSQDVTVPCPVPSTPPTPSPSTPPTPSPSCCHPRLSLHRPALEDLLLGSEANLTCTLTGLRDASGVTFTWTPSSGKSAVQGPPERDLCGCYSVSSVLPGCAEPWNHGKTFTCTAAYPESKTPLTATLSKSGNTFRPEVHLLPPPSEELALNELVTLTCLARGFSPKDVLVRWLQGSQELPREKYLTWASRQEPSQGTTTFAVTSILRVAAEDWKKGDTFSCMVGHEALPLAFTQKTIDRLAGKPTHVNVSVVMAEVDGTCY
T3 sequence (P01861 1-274): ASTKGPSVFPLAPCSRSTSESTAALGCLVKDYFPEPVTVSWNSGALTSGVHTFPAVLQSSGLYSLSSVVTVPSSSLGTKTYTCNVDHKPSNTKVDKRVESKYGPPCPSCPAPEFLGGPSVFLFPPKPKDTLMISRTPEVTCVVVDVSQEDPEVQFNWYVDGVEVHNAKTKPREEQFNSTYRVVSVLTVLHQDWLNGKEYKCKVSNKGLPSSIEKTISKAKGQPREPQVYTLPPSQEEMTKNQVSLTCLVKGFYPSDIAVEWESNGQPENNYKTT
T6 sequence (P01861 1-110): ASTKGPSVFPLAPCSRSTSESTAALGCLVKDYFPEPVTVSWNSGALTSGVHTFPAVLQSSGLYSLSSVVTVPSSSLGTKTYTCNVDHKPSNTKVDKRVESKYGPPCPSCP
T4 sequence (P01861 1-220): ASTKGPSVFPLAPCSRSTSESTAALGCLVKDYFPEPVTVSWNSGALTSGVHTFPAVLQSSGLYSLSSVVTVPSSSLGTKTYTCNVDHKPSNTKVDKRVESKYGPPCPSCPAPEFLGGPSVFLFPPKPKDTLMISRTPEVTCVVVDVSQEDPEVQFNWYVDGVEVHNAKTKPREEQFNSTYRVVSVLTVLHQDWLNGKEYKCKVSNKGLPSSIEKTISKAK
T1 sequence (constant, as listed by the source limits assumed): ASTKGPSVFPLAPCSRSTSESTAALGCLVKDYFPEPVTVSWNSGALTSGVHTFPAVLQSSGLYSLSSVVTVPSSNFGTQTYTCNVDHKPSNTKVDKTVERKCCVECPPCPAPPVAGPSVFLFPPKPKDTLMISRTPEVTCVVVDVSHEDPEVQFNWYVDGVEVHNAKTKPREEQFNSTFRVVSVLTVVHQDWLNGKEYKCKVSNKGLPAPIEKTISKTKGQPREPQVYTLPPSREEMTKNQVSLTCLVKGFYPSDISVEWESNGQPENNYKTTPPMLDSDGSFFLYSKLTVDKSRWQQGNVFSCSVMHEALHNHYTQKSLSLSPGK
T2 sequence (constant, as listed by the source limits assumed): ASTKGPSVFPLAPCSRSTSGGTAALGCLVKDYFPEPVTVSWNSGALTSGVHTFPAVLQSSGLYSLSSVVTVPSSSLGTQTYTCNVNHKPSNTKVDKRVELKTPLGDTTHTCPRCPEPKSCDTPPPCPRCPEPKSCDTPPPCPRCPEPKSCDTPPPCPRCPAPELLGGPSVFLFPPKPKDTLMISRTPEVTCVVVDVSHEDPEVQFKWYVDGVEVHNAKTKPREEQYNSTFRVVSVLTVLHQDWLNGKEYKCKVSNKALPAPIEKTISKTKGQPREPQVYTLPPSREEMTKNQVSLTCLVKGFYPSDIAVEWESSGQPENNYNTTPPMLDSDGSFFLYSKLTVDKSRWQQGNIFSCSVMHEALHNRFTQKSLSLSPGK
Chain of Myeloma human IgM (Abcam) (P01871 other isoform, or with tags, fused parts or gaps): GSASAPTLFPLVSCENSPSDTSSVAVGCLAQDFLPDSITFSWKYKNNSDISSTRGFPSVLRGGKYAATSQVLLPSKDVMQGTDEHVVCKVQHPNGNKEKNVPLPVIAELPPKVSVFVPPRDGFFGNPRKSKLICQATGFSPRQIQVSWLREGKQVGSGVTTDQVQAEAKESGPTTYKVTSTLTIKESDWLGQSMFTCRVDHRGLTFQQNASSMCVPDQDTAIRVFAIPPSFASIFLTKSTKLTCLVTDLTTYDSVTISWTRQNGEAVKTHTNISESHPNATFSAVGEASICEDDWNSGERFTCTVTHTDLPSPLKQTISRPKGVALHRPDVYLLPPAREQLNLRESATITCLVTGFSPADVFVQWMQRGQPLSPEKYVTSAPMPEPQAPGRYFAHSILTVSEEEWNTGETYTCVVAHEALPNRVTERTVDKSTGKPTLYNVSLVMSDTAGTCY
T9 sequence (P01861 99-220): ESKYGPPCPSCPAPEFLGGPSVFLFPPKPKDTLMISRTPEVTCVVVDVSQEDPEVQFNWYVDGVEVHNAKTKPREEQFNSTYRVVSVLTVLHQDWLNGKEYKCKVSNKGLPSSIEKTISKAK
T8 sequence (P01861 other isoform, or with tags, fused parts or gaps): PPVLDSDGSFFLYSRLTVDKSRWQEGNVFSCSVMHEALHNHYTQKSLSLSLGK
T7 sequence (P01859 1-55): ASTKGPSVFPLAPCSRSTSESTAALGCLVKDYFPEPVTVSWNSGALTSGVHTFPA
Chain of Myeloma human IgD (Abcam) (P01880 other isoform, or with tags, fused parts or gaps): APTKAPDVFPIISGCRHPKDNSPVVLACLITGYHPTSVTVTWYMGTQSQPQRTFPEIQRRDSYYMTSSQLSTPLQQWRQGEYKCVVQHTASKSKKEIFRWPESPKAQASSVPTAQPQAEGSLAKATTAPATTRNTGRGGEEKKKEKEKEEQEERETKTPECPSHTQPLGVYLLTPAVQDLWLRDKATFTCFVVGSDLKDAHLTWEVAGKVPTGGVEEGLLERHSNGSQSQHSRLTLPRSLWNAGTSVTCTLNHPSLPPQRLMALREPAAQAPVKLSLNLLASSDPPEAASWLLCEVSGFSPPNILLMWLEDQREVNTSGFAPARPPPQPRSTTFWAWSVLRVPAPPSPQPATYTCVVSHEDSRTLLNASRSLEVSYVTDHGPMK

B1: MaI4-09-produced antibody (antibody, IgG1, V domains shown)
VH: EVQLQQSGPELVKPGASVKMSCKASGYTFTSSVMHWMKQKPGQGLEWIGYINPYNDGTRYNEKFQGKATLTSDKSSNTAYMELSSLTSEDSAVYYCTRSFYYGNSHVLFAYWGQGTLVTVSA
VL: DIKMTQSPSSIYPSLGERVTITCKASQDINSYLSWFQQKPGKSPKTLIYRANRLVDGVPSRFSGSGSGQDYSLTISSLEYEDMGIYHCLQYDELPYTFGGGTTLEIK
notes: Purified on protein G from hybridoma culture supernatant; POD-labelled for the Western blots
B1 was tested, and the “absorbance at 450 nm” value [1] was 0.058, the “absorbance at 450 nm” value [2] was 0.05 and the “absorbance at 450 nm” value [3] was 0.051. For the same binder, the “absorbance at 450 nm” value [4] was 0.05, the “absorbance at 450 nm” value [5] was 0.055 and the “absorbance at 450 nm” value [6] was 0.064. For the same binder, the “absorbance at 450 nm” value [7] was 0.052, the binding result [8] was “no binding” and the binding result [9] was “no binding”. B1: no binding [10]; no binding [11]; no binding [12]. B1: no binding [13]; no binding [14].

— patent US20210140973A1 (NITTO BOSEKI, published 2021)
